Legend:
Assay type in all cases: biochemical, Z. mays
[1] = test system: 4-hydroxyphenylpyruvate dioxygenase (HPPD); assay: Insensitivity parameter (ON × OFF) and trait fitness (ON × OFF × kcat/KM or × kcat); set-up: key to ON × OFF / Insensitivity, mesotrione, ON × OFF / Insensitivity, tembotrione, ON × OFF / Insensitivity, topramezone, ON × OFF / Insensitivity, sulcotrione, ON × OFF / Insensitivity, isoxaflutole (DKN), ON × OFF: insensitivity = ON rate ratio × OFF rate ratio (surrogate for KD); details: for ON × OFF × kcat, Value / ON × OFF × kcat, Fold vs wt / ON × OFF, fold vs wt / ON × OFF (parameters with tembotrione): Table 5; for ON × OFF × kcat, Fold vs wt / ON × OFF, fold vs wt: fold vs maize wild type HPPD; for ON × OFF (parameters with tembotrione): insensitivity parameter; for Insensitivity, isoxaflutole (DKN), ON × OFF / Insensitivity, isoxaflutole (DKN), Trait fitness: inhibitor diketonitrile form of isoxaflutole (DKN); for Insensitivity, mesotrione, ON × OFF / Insensitivity, mesotrione, Trait Fitness: inhibitor mesotrione; for Insensitivity, sulcotrione, ON × OFF / Insensitivity, sulcotrione, Trait fitness: inhibitor sulcotrione; for Insensitivity, tembotrione, ON × OFF / Insensitivity, tembotrione, Trait fitness: inhibitor tembotrione; for Insensitivity, topramezone, ON × OFF / Insensitivity, topramezone, Trait Fitness: inhibitor topramezone
In short: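 Trait fitness combines catalysis and insensitivity as kcat/KM × ON rate ratio × OFF rate ratio. The insensitivity parameter is the product of ON and OFF rate ratios, used in place of KD because the ON rate ratio is inverse.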

[2] = test system: 4-hydroxyphenylpyruvate dioxygenase (HPPD); assay: Estimate of kcat from initial rate at saturating hydroxyphenylpyruvate without inhibitor (ON rate ratio assay)
In short: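 kcat was estimated from the initial reaction rate with known enzyme level (60 or 120 nM HPPD). Hydroxyphenylpyruvate was at a saturating 100 μM, with no inhibitor present.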

[3] = test system: 4-hydroxyphenylpyruvate dioxygenase (HPPD); assay: OFF rate ratio: release of inhibitor from pre-formed enzyme-inhibitor complex; details: for OFF ratio (parameters with tembotrione): Table 5; for Insensitivity, isoxaflutole (DKN), Rate ratio OFF: inhibitor diketonitrile form of isoxaflutole (DKN); for Insensitivity, mesotrione, Rate ratio OFF: inhibitor mesotrione; for Insensitivity, sulcotrione, Rate ratio OFF: inhibitor sulcotrione; for Insensitivity, tembotrione, Rate ratio OFF: inhibitor tembotrione; for Insensitivity, topramezone, Rate ratio OFF: inhibitor topramezone
In short: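 Inhibitor release from pre-formed complex (enzyme 7.2 μM, inhibitor 8 μM, 1 h RT) tracked as accelerating HPPD activity at 320 nm over 12 min, coupled via 50 nM HGD with 100 μM HPP at pH 7. OFF rate ratio: steady-state velocity relative to uninhibited initial velocity.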

[4] = test system: 4-hydroxyphenylpyruvate dioxygenase (HPPD); assay: ON rate ratio: HPPD reaction rate with vs without inhibitor in the 70 to 90 second interval; details: for ON ratio (parameters with tembotrione): Table 5; for Insensitivity, isoxaflutole (DKN), Rate ratio ON: inhibitor diketonitrile form of isoxaflutole (DKN); for Insensitivity, mesotrione, Rate ratio ON: inhibitor mesotrione; for Insensitivity, sulcotrione, Rate ratio ON: inhibitor sulcotrione; for Insensitivity, tembotrione, Rate ratio ON: inhibitor tembotrione; for Insensitivity, topramezone, Rate ratio ON: inhibitor topramezone
In short: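 Indicator of inhibitor on-rate: reaction velocity in the 70 to 90 second window with 4 μM inhibitor divided by that without. Reactions contained 100 μM HPP and 60 or 120 nM HPPD; slower binding gives a larger ratio.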

[5] = DKN (diketonitrile form of isoxaflutole)
[6] = Table 7, tembotrione, combinatorial variants
[7] = Table 5, single substitutions in Round 7 variant 9070 (SEQ ID NO:2), estimate from initial rate at saturating hydroxyphenylpyruvate without inhibitor
[8] = Table 7, combinatorial variants

B1: R7-9070: shuffled maize HPPD, Round 7, variant 9070 (SEQ ID NO:2); backbone for saturation mutagenesis (protein)
chain: MGPTPTATAAGAAVAAASAAEQAAFRLVGHRNFVRFNPRSDRFQTLAFHHVELWCADAASAAGRFSFALGVPLAARSDLSTGNSAHASLLLRSGSLSLLFTAPYAHGADAATAALPSFSAAAARRFAADHGLAVRAVALRVADAEDAFRASVAAGARPAFGPVDLGRGFRLAEVELYGDVVLRYVSYPDGAAGEPFLPGFEGVASPGAADYGLSRFDHIVGNVPELAPAAAYMAGFTGFHEFAEFTTEDVGTTESGLNSMALANNSENVLLPLNEPVHGTKRRSQIQTFLDHHGGPGVQHIALASDDVLRTLREMRARSAMGGFEFLPPPLSDYYDGVRRCAGDVLTEAQINECQELGVMVDRDDQGVLLQIFTKPVGDRPTFFLEIIQRIGCMEKDEKGQEYQKGGCGGFGKGNFGQLFKSIEDYEKSLEAKQAAAAATAQGS
modifications: Zea mays variant form created by artificial means.
notes: backbone for saturation mutagenesis
[1]; [5]
  Insensitivity parameter, ON × OFF: 0.24
[1]; Megatable 3, shuffled variants
  ON × OFF: 0.086
  ON × OFF × kcat: 3.45
[1]; Mesotrione, Table 6
  Insensitivity parameter, ON × OFF: 0.45
[1]; Sulcotrione
  Insensitivity parameter, ON × OFF: 0.56
[1]; tembotrione
  ON × OFF × kcat, Value: 5.25
  ON × OFF × kcat, Fold vs wt: 4.90
  ON × OFF, fold vs wt: 30.0
  ON × OFF (parameters with tembotrione): 0.15
[1]; [6]
  ON × OFF: 0.086
  ON × OFF × kcat: 3.45
[1]; Tembotrione
  Insensitivity parameter, ON × OFF: 0.19
[1]; Topramezon
  Insensitivity parameter, ON × OFF: 0.26
[1]
  Insensitivity, isoxaflutole (DKN), ON × OFF: 0.11
  Insensitivity, isoxaflutole (DKN), Trait fitness: 3.30
  Insensitivity, mesotrione, ON × OFF: 0.59
  Insensitivity, mesotrione, Trait Fitness: 18.1
  Insensitivity, sulcotrione, ON × OFF: 0.38
  Insensitivity, sulcotrione, Trait fitness: 11.8
  Insensitivity, tembotrione, ON × OFF: 0.17
  Insensitivity, tembotrione, Trait fitness: 5.36
  Insensitivity, topramezone, ON × OFF: 0.13
  Insensitivity, topramezone, Trait Fitness: 3.99
[1]; mesotrione
  Fitness Fold vs Zm wt: 7.9
[1]; mesotrione, Table 2
  Insensitivity parameter, ON × OFF: 0.56
[1]; mesotrione, vs maize wild type
  Insensitivity ON × OFF, Fold vs wt: 9.11
[2]; Megatable 3, shuffled variants
  kcat: 0.667 s⁻¹
[2]; [7]
  kcat: 0.57 s⁻¹
[2]; [8]
  kcat: 0.667 s⁻¹
[3]; tembotrione
  OFF ratio (parameters with tembotrione): 0.21
[3]; [6]
  OFF rate ratio: 0.116
[3]
  Insensitivity, isoxaflutole (DKN), Rate ratio OFF: 0.20
  Insensitivity, mesotrione, Rate ratio OFF: 0.89
  Insensitivity, sulcotrione, Rate ratio OFF: 0.71
  Insensitivity, tembotrione, Rate ratio OFF: 0.22
  Insensitivity, topramezone, Rate ratio OFF: 0.25
[3]; mesotrione
  OFF rate ratio: 0.83
[4]; tembotrione
  ON ratio (parameters with tembotrione): 0.74
[4]; [6]
  ON rate ratio: 0.744
[4]
  Insensitivity, isoxaflutole (DKN), Rate ratio ON: 0.82
  Insensitivity, mesotrione, Rate ratio ON: 0.66
  Insensitivity, sulcotrione, Rate ratio ON: 0.81
  Insensitivity, tembotrione, Rate ratio ON: 0.80
  Insensitivity, topramezone, Rate ratio ON: 0.79
[4]; mesotrione
  ON rate ratio: 0.67

B2: P056028-G-01 (protein)
chain: MGPTPTATAAGAAVAAASAAEQAAFRLVGHRNFVRFNPRSDRFQTLAFHHVELWCADAASAAGRFSFALGVPLAARSDLSTGNSAHASLLLRSGSLSLLFTAPYAHGADAATAALPSFSAAAARRFAADHGLAVRAVALRVADAEDAFRASVAAGARPAFGPVDLGRGFRLAEVELYGDVVLRYVSYPDGAAGEPFLPGFEGVASPGAADLGLNRFDHIVGNVPELAPAAAYMAGFTGFHEFAEFTTEDVGTTESGLNSMALANNSENVLLPLNEPVHGTKRRSQIQTFLDHHGGPGVQHIALASDDVLRTLREMRARSAMGGFEFLPPPLSDYYDGVRKCAGDVLTEAQINECQELGVMVDRDDEGVLLQIFTKPVGDRPTFFLEIIQRIGCMEKDEKGQEYQKGGCGGFGKGNFGQLFKSIEDYEKSLEKKRAAAAATAQGS
modifications: Zea mays variant form created by artificial means.
[1]; Megatable 3, shuffled variants
  ON × OFF: 0.238
  ON × OFF × kcat: 7.65
[1]; [6]
  ON × OFF: 0.238
  ON × OFF × kcat: 7.65
[1]
  Insensitivity, isoxaflutole (DKN), ON × OFF: 0.32
  Insensitivity, isoxaflutole (DKN), Trait fitness: 6.55
  Insensitivity, mesotrione, ON × OFF: 0.71
  Insensitivity, mesotrione, Trait Fitness: 14.6
  Insensitivity, sulcotrione, ON × OFF: 0.89
  Insensitivity, sulcotrione, Trait fitness: 18.2
  Insensitivity, tembotrione, ON × OFF: 0.36
  Insensitivity, tembotrione, Trait fitness: 7.32
  Insensitivity, topramezone, ON × OFF: 0.46
  Insensitivity, topramezone, Trait Fitness: 9.31
[2]; Megatable 3, shuffled variants
  kcat: 0.537 s⁻¹
[2]; [8]
  kcat: 0.537 s⁻¹
[3]; [6]
  OFF rate ratio: 0.320
[3]
  Insensitivity, isoxaflutole (DKN), Rate ratio OFF: 0.42
  Insensitivity, mesotrione, Rate ratio OFF: 1.00
  Insensitivity, sulcotrione, Rate ratio OFF: 1.14
  Insensitivity, tembotrione, Rate ratio OFF: 0.47
  Insensitivity, topramezone, Rate ratio OFF: 0.57
[4]; [6]
  ON rate ratio: 0.742
[4]
  Insensitivity, isoxaflutole (DKN), Rate ratio ON: 0.77
  Insensitivity, mesotrione, Rate ratio ON: 0.71
  Insensitivity, sulcotrione, Rate ratio ON: 0.78
  Insensitivity, tembotrione, Rate ratio ON: 0.77
  Insensitivity, topramezone, Rate ratio ON: 0.80

B3: Z. mays wt: maize wild-type HPPD, SEQ ID NO:1 (glycine for proline at position 2) (protein)
chain: MGPTPTAAAAGAAVAAASAAEQAAFRLVGHRNFVRFNPRSDRFHTLAFHHVELWCADAASAAGRFSFGLGAPLAARSDLSTGNSAHASLLLRSGSLSFLFTAPYAHGADAATAALPSFSAAAARRFAADHGLAVRAVALRVADAEDAFRASVAAGARPAFGPVDLGRGFRLAEVELYGDVVLRYVSYPDGAAGEPFLPGFEGVASPGAADYGLSRFDHIVGNVPELAPAAAYFAGFTGFHEFAEFTTEDVGTAESGLNSMVLANNSENVLLPLNEPVHGTKRRSQIQTFLDHHGGPGVQHMALASDDVLRTLREMQARSAMGGFEFMAPPTSDYYDGVRRRAGDVLTEAQIKECQELGVLVDRDDQGVLLQIFTKPVGDRPTLFLEIIQRIGCMEKDEKGQEYQKGGCGGFGKGNFSQLFKSIEDYEKSLEAKQAAAAAAAQGS
modifications: Zea mays
[1]; [5]
  Insensitivity parameter, ON × OFF: 0.0096
[1]; Mesotrione, Table 6
  Insensitivity parameter, ON × OFF: 0.0437
[1]; Sulcotrione
  Insensitivity parameter, ON × OFF: 0.0872
[1]; tembotrione
  ON × OFF × kcat, Value: 1.07
  ON × OFF × kcat, Fold vs wt: 1.00
  ON × OFF, fold vs wt: 1.00
  ON × OFF (parameters with tembotrione): 0.0051
[1]; Tembotrione
  Insensitivity parameter, ON × OFF: 0.0051
[1]; Topramezon
  Insensitivity parameter, ON × OFF: 0.0154
[1]
  Insensitivity, isoxaflutole (DKN), ON × OFF: 0.0005
  Insensitivity, isoxaflutole (DKN), Trait fitness: 0.015
  Insensitivity, mesotrione, ON × OFF: 0.062
  Insensitivity, mesotrione, Trait Fitness: 2.1
  Insensitivity, sulcotrione, ON × OFF: 0.042
  Insensitivity, sulcotrione, Trait fitness: 1.45
  Insensitivity, tembotrione, ON × OFF: 0.007
  Insensitivity, tembotrione, Trait fitness: 0.26
  Insensitivity, topramezone, ON × OFF: 0.002
  Insensitivity, topramezone, Trait Fitness: 0.077
[1]; mesotrione
  Fitness Fold vs Zm wt: 1
  fold less sensitive to mesotrione than soybean HPPD: 40 fold
[1]; mesotrione, Table 2
  Insensitivity parameter, ON × OFF: 0.06
[2]; [7]
  kcat: 3.5 s⁻¹
[3]; tembotrione
  OFF ratio (parameters with tembotrione): 0.03
[3]
  Insensitivity, isoxaflutole (DKN), Rate ratio OFF: 0.01
  Insensitivity, mesotrione, Rate ratio OFF: 0.31
  Insensitivity, sulcotrione, Rate ratio OFF: 0.28
  Insensitivity, tembotrione, Rate ratio OFF: 0.04
  Insensitivity, topramezone, Rate ratio OFF: 0.045
[3]; mesotrione
  OFF rate ratio: 0.31
[3]; mesotrione, enzyme 240 nM
  time span to reach the steady state (dissociation from inhibitor): 280 s
[4]; tembotrione
  ON ratio (parameters with tembotrione): 0.17
[4]
  Insensitivity, isoxaflutole (DKN), Rate ratio ON: 0.08
  Insensitivity, mesotrione, Rate ratio ON: 0.20
  Insensitivity, sulcotrione, Rate ratio ON: 0.30
  Insensitivity, tembotrione, Rate ratio ON: 0.20
  Insensitivity, topramezone, Rate ratio ON: 0.100
[4]; mesotrione
  ON rate ratio: 0.20
[4]; mesotrione, listed as wild type
  ON rate ratio: 0.2
